Article PMC9720954, “Blood–brain barrier penetrating neprilysin degrades monomeric amyloid-beta in a mouse model of Alzheimer’s disease” (Alzheimer's Research & Therapy, 2022)

How the values were obtained:
Aβ1-42 aggregates = target: T1, Aβ1-42 aggregates (Homo sapiens (synthetic peptide; …, UniProt P05067); assay: ELISA; sandwich ELISA; 1 nM Aβ1-40 monomers or 1 nM Aβ1-42 aggregates held by coated rabbit polyclonal antibodies (C-terminal of Aβ, or Aβ1-42); serial dilutions of the recombinant proteins in 0.1% BSA, 0.05% Tween-20 in PBS, 2 h at RT; goat anti-mouse HRP; details: both partners purified
T1 construct: amyloid-beta 1-42, cut product of the amyloid precursor protein (APP); numbers count on: the Aβ peptide; Soluble aggregates; also called Aβ42; Aβ1-42 soluble aggregates; source: aggregates prepared as previously described [50]
T1 sequence (P05067 672-713): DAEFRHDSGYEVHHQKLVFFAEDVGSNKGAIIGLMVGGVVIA

Aβ1-40 monomers = target: T2, Aβ1-40 monomers (Homo sapiens (synthetic peptide; …, UniProt P05067); assay: as above; details: both partners purified
T2 construct: amyloid-beta 1-40, cut product of the amyloid precursor protein (APP); numbers count on: the Aβ peptide; Used as monomers, held on the plate by a rabbit polyclonal antibody against the C-terminus of Aβ; also called Aβ40; wt-Aβ1-40; source: bought: Innovagen
T2 sequence (P05067 672-711): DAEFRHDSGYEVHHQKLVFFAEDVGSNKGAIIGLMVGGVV

B1: scFc-scFv8D3 (scFv, V domains shown)
VH: EVQLVESGGGLVQPGNSLTLSCVASGFTFSNYGMHWIRQAPKKGLEWIAMIYYDSSKMNYADTVKGRFTISRDNSKNTLYLEMNSLRSEDTAMYYCAVPTSHYVVDVWGQGVSVTVSS
VL: DIQMTQSPASLSASLEEIVTITCQASQDIGNWLAWYQQKPGKSPQLLIYGATSLADGVPSRFSGSRSGTQFSLKISRVQVEDIGIYYCLQAYNTPWTFGGGTKLELK
notes: first variable domain of scFv8D3, as in m1; (G4S)3 linker between the two parts of scFv8D3, written out from the printed formula; second variable domain of scFv8D3, as in m1; in-house linker between scFv8D3 and scFc; Lacks NEP; the control of the study; the signal peptide is cleaved on expression; Mw 81 kDa; also called scFv8D3-scFc; source: Expi293 cells, transfected (pcDNA3.4), purified …
binding result (Aβ1-42 aggregates): no binding
binding result (Aβ1-40 monomers): no binding
